Literature values as cited in patent publication US11207384B2, “Rapid-acting insulin compositions” (Eli Lilly and Company, priority 2017, dated 2021).

Key:
[1] = for time until maximum circulating insulin concentration is reached: following the injection
[2] = on a molar basis
insulin receptor = molecular target: T1, insulin receptor (Homo sapiens, UniProt P06213); conditions: insulin receptor binding in cultured lymphocytes, human placenta and human liver, glucose transport in adipocytes
T1 construct: host or cells: cultured lymphocytes, human placenta, human liver

Substance	time until maximum circulating insulin concentration is reached [1]	potency relative to human insulin (in words) [2]	kinetics compared to human insulin (in words) ([1]; Tmax, half-life, Cmax)	effect after subcutaneous injection compared with soluble human insulin (in words) ([1]; subcutaneous injection)	equivalence to insulin in in vitro tests (in words) (insulin receptor)
insulin aspart	50 to 90 min				
insulin glulisine	50 to 90 min				
insulin lispro	50 to 90 min	equipotent to human insulin on a molar basis	shorter Tmax and half-life and with a higher Cmax	more rapid and of shorter duration than that of injected soluble human insulin	biologically equivalent to insulin
